{"source": "patent US20040009571A1", "about": "(published 2004)", "key": {"[1]": {"molecular_target": "STAT1 N-domain (S12A) (human) (UniProt P42224)", "experiment": "analytical ultracentrifugation, sedimentation equilibrium; self-association"}, "[2]": {"molecular_target": "the molecule itself", "experiment": "analytical ultracentrifugation, sedimentation equilibrium; self-association (monomer 15,223 Da)", "method": "(§1) As described below, point mutations in STAT1 were introduced at several sites at each of Interface I and II. The point mutation introduced in each of the STAT1 N-domain mutant proteins is indicated in the first column. The approximate molecular weight estimated by sedimentation equilibrium experiments, and migration as a monomer or dimer species on gel filtration analysis, is shown for each mutant protein.\n(§2) For gel filtration analysis, 1.5 mg of purified STAT N domain protein in a volume of 500 μl was run on a 120 ml Superdex 75 column at a flow rate of 0.5 ml/min, in 50 mM Tris, pH 8.0, 100 mM NaCl and 1 mM DTT. Equilibrium sedimentation experiments were performed using a Beckman Optima XL-A analytical ultracentrifuge with an An-60 Ti rotor and six-sector cells. STAT N-domain proteins at concentrations of 0.65, 0.32 and 0.16 mg/ml were centrifuged in the gel filtration buffer, at 25,000 rev/min. at 4° C. for 20 h. Subsequently, absorbance measurements at 280 nm were taken in 0.001 cm radial steps and equilibrium was ascertained by comparing scans taken at 1 h intervals. The Optima XL-A/XL-I data analysis software from Beckman Coulter was used for data processing and curve fitting. A partial specific volume of 0.73 cm³/g was used and background absorbance was corrected empirically by allowing the baseline to float during the fitting calculations."}, "[3]": {"molecular_target": "the molecule itself", "experiment": "analytical ultracentrifugation, sedimentation equilibrium; self-association", "method": "as §1, §2"}, "[4]": {"molecular_target": "the molecule itself", "experiment": "gel filtration on Superdex 75 (self-association)", "method": "as §2"}, "[5]": {"molecular_target": "the molecule itself", "experiment": "analytical ultracentrifugation, sedimentation equilibrium (self-association)", "description": "Not only is Interface II more extensive than Interface I, it also involves interactions between hydrophobic residues (unlike the essentially polar nature of Interface I). Certain residues at interface II were individually replaced by Ala (Table 1) and the mutant STAT N-domains were examined for dimerization. […] The results for mutations at the other side of the interface provide evidence for interference with dimer formation. M28A migrated as an intermediate between dimer and monomer on gel filtration analysis, but appeared as a dimer by analytical ultracentrifugation analysis. […] The hydrophobic nature of the residues at positions 77 and 78 is conserved between STAT1 and STAT4, which has leucine residues at both positions. Likewise, Met 28 is conserved in STAT4.\nFor gel filtration analysis, 1.5 mg of purified STAT N domain protein in a volume of 500 μl was run on a 120 ml Superdex 75 column at a flow rate of 0.5 ml/min, in 50 mM Tris, pH 8.0, 100 mM NaCl and 1 mM DTT. […] Subsequently, absorbance measurements at 280 nm were taken in 0.001 cm radial steps and equilibrium was ascertained by comparing scans taken at 1 h intervals. […] A partial specific volume of 0.73 cm³/g was used and background absorbance was corrected empirically by allowing the baseline to float during the fitting calculations."}}, "data": [{"molecule": "STAT1 N-domain (S12A) (from UniProt P42224 1-124)", "values": [{"measurement": "molecular weight by sedimentation equilibrium", "setting": "[1]", "value": 17, "unit": "kDa"}]}, {"molecule": "wild type STAT1 N-domain (human STAT1 amino acid residues 1 to 124) (other, UniProt P42224 1-124, looked up, range 1-124; Expressed in E. coli as a GST fusion and released with TEV protease; also called N-domain of human STAT1) MSQWYELQQLDSKFLEQVHQLYDDSFPMEIRQYLAQWLEKQDWEHAANDVSFATIRFHDLLSQLDDQYSRFSLENNFLLQHNIRKSKRNLQDNFQEDPIQMSMIIYSCLKEERKILENAQRFNQ", "values": [{"measurement": "molecular weight by sedimentation equilibrium", "setting": "[2]", "value": "~28", "unit": "kDa"}]}, {"molecule": "STAT1 N-domain (Q8A) (other, human, UniProt P42224 1-124, looked up, range 1-124; Interface II mutant; GST fusion cleaved with TEV protease) MSQWYELAQLDSKFLEQVHQLYDDSFPMEIRQYLAQWLEKQDWEHAANDVSFATIRFHDLLSQLDDQYSRFSLENNFLLQHNIRKSKRNLQDNFQEDPIQMSMIIYSCLKEERKILENAQRFNQ", "values": [{"measurement": "molecular weight by sedimentation equilibrium", "setting": "[3]", "value": "~27", "unit": "kDa"}]}, {"molecule": "STAT1 N-domain (F77A) (other, human, UniProt P42224 1-124, looked up, range 1-124; Interface II mutant; GST fusion cleaved with TEV protease; Its CD spectrum was identical to wild type; also called STAT1 F77A) MSQWYELQQLDSKFLEQVHQLYDDSFPMEIRQYLAQWLEKQDWEHAANDVSFATIRFHDLLSQLDDQYSRFSLENNALLQHNIRKSKRNLQDNFQEDPIQMSMIIYSCLKEERKILENAQRFNQ", "values": [{"measurement": "binding result", "setting": "[4]", "value": "no binding (tested: 1.5 mg in 500 µl)"}, {"measurement": "molecular weight by sedimentation equilibrium", "setting": "[2]", "value": "~15", "unit": "kDa"}]}, {"molecule": "STAT1 N-domain (E29A) (other, human, UniProt P42224 1-124, looked up, range 1-124; Interface II mutant; GST fusion cleaved with TEV protease) MSQWYELQQLDSKFLEQVHQLYDDSFPMAIRQYLAQWLEKQDWEHAANDVSFATIRFHDLLSQLDDQYSRFSLENNFLLQHNIRKSKRNLQDNFQEDPIQMSMIIYSCLKEERKILENAQRFNQ", "values": [{"measurement": "molecular weight by sedimentation equilibrium", "setting": "[3]", "value": "~27", "unit": "kDa"}]}, {"molecule": "STAT1 N-domain (L15A) (other, human, UniProt P42224 1-124, looked up, range 1-124; Interface II mutant; GST fusion cleaved with TEV protease) MSQWYELQQLDSKFAEQVHQLYDDSFPMEIRQYLAQWLEKQDWEHAANDVSFATIRFHDLLSQLDDQYSRFSLENNFLLQHNIRKSKRNLQDNFQEDPIQMSMIIYSCLKEERKILENAQRFNQ", "values": [{"measurement": "molecular weight by sedimentation equilibrium", "setting": "[3]", "value": "~28", "unit": "kDa"}]}, {"molecule": "STAT1 N-domain (L78A) (other, human, UniProt P42224 1-124, looked up, range 1-124; Interface II mutant; GST fusion cleaved with TEV protease; Its CD spectrum was identical to wild type; also called STAT1 L78A) MSQWYELQQLDSKFLEQVHQLYDDSFPMEIRQYLAQWLEKQDWEHAANDVSFATIRFHDLLSQLDDQYSRFSLENNFALQHNIRKSKRNLQDNFQEDPIQMSMIIYSCLKEERKILENAQRFNQ", "values": [{"measurement": "binding result", "setting": "[5]", "value": "no binding (tested: 0.65, 0.32 and 0.16 mg/ml)"}, {"measurement": "molecular weight by sedimentation equilibrium", "setting": "[2]", "value": "~15", "unit": "kDa"}]}, {"molecule": "STAT1 N-domain (W37F) (other, human, UniProt P42224 1-124, looked up, range 1-124; Interface I mutant; GST fusion cleaved with TEV protease; also called N-domain of STAT1 (W37F)) MSQWYELQQLDSKFLEQVHQLYDDSFPMEIRQYLAQFLEKQDWEHAANDVSFATIRFHDLLSQLDDQYSRFSLENNFLLQHNIRKSKRNLQDNFQEDPIQMSMIIYSCLKEERKILENAQRFNQ", "values": [{"measurement": "molecular weight by sedimentation equilibrium", "setting": "[3]", "value": "~28", "unit": "kDa"}]}, {"molecule": "STAT1 N-domain (M28A) (other, human, UniProt P42224 1-124, looked up, range 1-124; Interface II mutant; GST fusion cleaved with TEV protease) MSQWYELQQLDSKFLEQVHQLYDDSFPAEIRQYLAQWLEKQDWEHAANDVSFATIRFHDLLSQLDDQYSRFSLENNFLLQHNIRKSKRNLQDNFQEDPIQMSMIIYSCLKEERKILENAQRFNQ", "values": [{"measurement": "molecular weight by sedimentation equilibrium", "setting": "[3]", "value": "~26", "unit": "kDa"}]}, {"molecule": "STAT1 N-domain (Q36A) (other, human, UniProt P42224 1-124, looked up, range 1-124; Interface I mutant; GST fusion cleaved with TEV protease) MSQWYELQQLDSKFLEQVHQLYDDSFPMEIRQYLAAWLEKQDWEHAANDVSFATIRFHDLLSQLDDQYSRFSLENNFLLQHNIRKSKRNLQDNFQEDPIQMSMIIYSCLKEERKILENAQRFNQ", "values": [{"measurement": "molecular weight by sedimentation equilibrium", "setting": "[3]", "value": "~29", "unit": "kDa"}]}, {"molecule": "STAT1 N-domain (R70A) (other, human, UniProt P42224 1-124, looked up, range 1-124; Interface I mutant; GST fusion cleaved with TEV protease) MSQWYELQQLDSKFLEQVHQLYDDSFPMEIRQYLAQWLEKQDWEHAANDVSFATIRFHDLLSQLDDQYSAFSLENNFLLQHNIRKSKRNLQDNFQEDPIQMSMIIYSCLKEERKILENAQRFNQ", "values": [{"measurement": "molecular weight by sedimentation equilibrium", "setting": "[3]", "value": "~27", "unit": "kDa"}]}, {"molecule": "STAT1 N-domain (Q41A) (other, human, UniProt P42224 1-124, looked up, range 1-124; Interface I mutant; GST fusion cleaved with TEV protease) MSQWYELQQLDSKFLEQVHQLYDDSFPMEIRQYLAQWLEKADWEHAANDVSFATIRFHDLLSQLDDQYSRFSLENNFLLQHNIRKSKRNLQDNFQEDPIQMSMIIYSCLKEERKILENAQRFNQ", "values": [{"measurement": "molecular weight by sedimentation equilibrium", "setting": "[3]", "value": "~27", "unit": "kDa"}]}]}
